According to US20250346668A1 (GENOR BIOPHARMA, published 2025):

Tests used:
[1] = target: T1, Cynomolgus monkey CD3e/g protein (cynomolgus monkey); assay: ELISA, coated cyno CD3e/g
T1 construct: also called cyno CD3e/g; cCD3e/g
Procedure: (§1) Human CD3e/g protein, cynomolgus monkey CD3e/g protein (sequences shown in Table 1) or human CD3e/d protein was diluted with PBS to a final concentration of 5.0 μg/mL, and then added with 100 μl per well to a 96-well ELISA plate. The plate was sealed with plastic film and incubated overnight at 4° C. The plate was washed twice with plate washing solution [PBS+0.01% (v/v) Tween 20] on the next day, and was added with blocking solution [PBS+0.01% (v/v) Tween 20+1% (w/w) BSA] to block at room temperature for 2 hours. The blocking solution was poured off, and 100 μl per well of the purified CD3e/g antibody obtained in Example 2 was added. After incubation at 37° C. for 2 hours, the plate was washed 3 times with plate washing solution [PBS+0.01% (v/v) Tween20]. After adding HRP (horseradish peroxidase) labeled secondary antibody (purchased from Sigma), the plate was incubated at 37° C. for 2 hours, washed 3 times with plate washing solution [PBS+0.01% (v/v) Tween 20]. After adding 100 μl per well of TMB substrate and incubating at room temperature for 30 minutes, 100 μl per well of stop solution (1.0N HCl) was added. […] FIG. 2 and Table 3 show the binding activities of CD3e/g antibodies to hCD3e/g as detected by ELISA, and FIG. 3 and Table 4 show the binding activities of CD3e/g antibodies to cyno CD3e/g as detected by ELISA, wherein the IgG control is mouse IgG, and the data in the tables are OD_{450 nm} values. Among them, HIT3a was purchased from BD pharmigen with a catalog number 555336; SP34 was purchased from BD pharmigen with a catalog number 551916. OKT3 was purchased from Biolegend.

[2] = target: T2, human CD3e/d protein (Sinobiological, CAT: CT038-H2508H-B) (human, UniProt P07766 23-126; P04234 22-105); assay: ELISA, coated hCD3e/d
T2 construct: Bought reagent; also called hCD3e/d
Procedure: as §1

[3] = target: T3, human CD3e/g antigen (ACRO, catalog number CDG-H52W5) (human, UniProt P07766 23-126; P09693 23-116); assay: SPR (Biacore 8K), antibody captured via anti-human Fc
T3 construct: Bought reagent used as the Biacore analyte; also called hCD3e/g
Procedure: The equilibrium dissociation constant of binding of CD3 antibodies to human CD3e/g antigen (purchased from ACRO, catalog number CDG-H52W5) was determined by kinetic binding method using Biacore 8K (GE) system. Through the capture method, the carboxylated dextran surface of CM5 chip was first activated with NHS (N-hydroxysuccinimide) and EDC (1-(3-dimethylaminopropyl)-3-ethylcarbodiimide hydrochloride), and then added with an anti-human IgG (Fc) antibody, the free amino group of which could form an amide bond with the activated carboxyl group, thereby being fixed on the chip surface. The anti-human IgG (Fc) antibody could bind to the Fc end of CD3 antibodies to capture the antibodies, and then a series of concentrations of antigen were added to obtain the binding and dissociation curves of antibody and antigen, and the corresponding kinetic constants were calculated by Biacore Evaluation software, as shown in the table below.

B1: mAb008 (antibody, V domains shown)
VH: QVQLQQSGAELARPGASVKMSCKTSGYTFTDYTVNWVKQRPGQGLEWIGYINPFNSYTKYNQKFKDKATLTADKSSSTAYMQLSSLTSEDSAVYFCANSVSTYWGQGTTLTVSS
VL: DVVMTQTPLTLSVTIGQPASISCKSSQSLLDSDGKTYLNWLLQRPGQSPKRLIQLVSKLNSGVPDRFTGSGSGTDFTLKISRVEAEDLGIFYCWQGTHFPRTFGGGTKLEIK
notes: Mouse hybridoma antibody
- EC50 [1]: 0.44 nM
- OD450 nm at 0.000853 nM [1]: 0.0893 OD450 nm
- OD450 nm at 0.0043 nM [1]: 0.111 OD450 nm
- OD450 nm at 0.02 nM [1]: 0.16 OD450 nm
- OD450 nm at 0.11 nM [1]: 0.48 OD450 nm
- OD450 nm at 0.53 nM [1]: 2.03 OD450 nm
- OD450 nm at 2.67 nM [1]: 3.32 OD450 nm
- OD450 nm at 13.3 nM [1]: 3.48 OD450 nm
- OD450 nm at 66.7 nM [1]: 3.42 OD450 nm
- EC50 [2]: 0.041 nM
- Emax (OD) [2]: 3.05 OD
- OD450 nm at 0.00128 nM [2]: 0.16 OD450 nm
- OD450 nm at 0.0064 nM [2]: 0.53 OD450 nm
- OD450 nm at 0.032 nM [2]: 1.31 OD450 nm
- OD450 nm at 0.16 nM [2]: 2.48 OD450 nm
- OD450 nm at 0.8 nM [2]: 2.88 OD450 nm
- OD450 nm at 4 nM [2]: 2.96 OD450 nm
- OD450 nm at 20 nM [2]: 3 OD450 nm
- OD450 nm at 100 nM [2]: 3.05 OD450 nm

B2: mAb009 (antibody, V domains shown)
VH: QVQLQQSGAELTRPGASVKMSCKASGYTFTDYTIHWVKQRPGQGLEWIGYINPFSDYTKYNQKFKDKATLTADKSSSTAYIQLNSLTSEDSAVYYCANSVSIYWGQGTTLTVSS
VL: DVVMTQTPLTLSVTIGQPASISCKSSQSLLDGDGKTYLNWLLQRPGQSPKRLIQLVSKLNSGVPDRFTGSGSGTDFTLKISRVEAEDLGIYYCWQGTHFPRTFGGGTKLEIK
notes: Mouse hybridoma antibody
- EC50 [1]: 0.32 nM
- OD450 nm at 0.000853 nM [1]: 0.0755 OD450 nm
- OD450 nm at 0.0043 nM [1]: 0.126 OD450 nm
- OD450 nm at 0.02 nM [1]: 0.19 OD450 nm
- OD450 nm at 0.11 nM [1]: 0.63 OD450 nm
- OD450 nm at 0.53 nM [1]: 2.44 OD450 nm
- OD450 nm at 2.67 nM [1]: 3.41 OD450 nm
- OD450 nm at 13.3 nM [1]: 3.54 OD450 nm
- OD450 nm at 66.7 nM [1]: 3.46 OD450 nm
- EC50 [2]: 0.027 nM
- Emax (OD) [2]: 3.03 OD
- OD450 nm at 0.00128 nM [2]: 0.24 OD450 nm
- OD450 nm at 0.0064 nM [2]: 0.66 OD450 nm
- OD450 nm at 0.032 nM [2]: 1.67 OD450 nm
- OD450 nm at 0.16 nM [2]: 2.64 OD450 nm
- OD450 nm at 0.8 nM [2]: 2.85 OD450 nm
- OD450 nm at 4 nM [2]: 2.97 OD450 nm
- OD450 nm at 20 nM [2]: 3.02 OD450 nm
- OD450 nm at 100 nM [2]: 3.03 OD450 nm

B3: mAb001 (antibody, V domains shown)
VH: QVQLQQSGPELVKPGASVKISCKASGYSFTNYYMHWVKQRPGQGLEWIGWTYPGNNNIKYNEKFKGKATLTADTSSSTAYMQLSSLTSEDSAVYYCARDGYGYYFFDYWGQGIILTVSS
VL: DIVMSQSPSSLAVSAGEKVTMSCKSSQSLLNNRTRKNYLAWYQQKPGQSPKLLIYWASTRESGVPDRFTGSGSGTDFTLTISSVQAEDLAIYYCKQSYTLRTFGGGTKLAIK
notes: Mouse hybridoma antibody; The variable regions are printed as CAb001 VH/VL
- EC50 [1]: 0.33 nM
- OD450 nm at 0.000853 nM [1]: 0.164 OD450 nm
- OD450 nm at 0.0043 nM [1]: 0.152 OD450 nm
- OD450 nm at 0.02 nM [1]: 0.17 OD450 nm
- OD450 nm at 0.11 nM [1]: 0.64 OD450 nm
- OD450 nm at 0.53 nM [1]: 2.43 OD450 nm
- OD450 nm at 2.67 nM [1]: 3.45 OD450 nm
- OD450 nm at 13.3 nM [1]: 3.5 OD450 nm
- OD450 nm at 66.7 nM [1]: 3.49 OD450 nm
- EC50 [2]: 0.022 nM
- Emax (OD) [2]: 3.05 OD
- OD450 nm at 0.00128 nM [2]: 0.27 OD450 nm
- OD450 nm at 0.0064 nM [2]: 0.72 OD450 nm
- OD450 nm at 0.032 nM [2]: 1.83 OD450 nm
- OD450 nm at 0.16 nM [2]: 2.72 OD450 nm
- OD450 nm at 0.8 nM [2]: 2.96 OD450 nm
- OD450 nm at 4 nM [2]: 2.99 OD450 nm
- OD450 nm at 20 nM [2]: 3.05 OD450 nm
- OD450 nm at 100 nM [2]: 3.02 OD450 nm

B4: mAb007 (antibody, V domains shown)
VH: QVQLQQSGPELVKPGASVKISCKASGSTFTDNYIHWVKQRPGQGLEWIGWIYPGSVNIKYNEKFKDKATLTADTSSTTAYMQLSSLSSEDSAIYYCARDISRYYFDYWGQGTTLTVSS
VL: DIVMSQSPSSLAVSAGERVTMNCKSSQSLLNSRTRKNYLAWYQQKPGQSPKLLIYWASTRESGVPDRFTGSGSGTDFTLTISSVQAEDLAVYYCKQSFILRTFGGGTKLAIK
notes: Mouse hybridoma antibody; The variable regions are printed as CAb007 VH/VL
- EC50 [1]: 0.26 nM
- OD450 nm at 0.000853 nM [1]: 0.0902 OD450 nm
- OD450 nm at 0.0043 nM [1]: 0.128 OD450 nm
- OD450 nm at 0.02 nM [1]: 0.22 OD450 nm
- OD450 nm at 0.11 nM [1]: 0.73 OD450 nm
- OD450 nm at 0.53 nM [1]: 2.7 OD450 nm
- OD450 nm at 2.67 nM [1]: 3.45 OD450 nm
- OD450 nm at 13.3 nM [1]: 3.47 OD450 nm
- OD450 nm at 66.7 nM [1]: 3.49 OD450 nm
- EC50 [2]: 0.017 nM
- Emax (OD) [2]: 3.04 OD
- OD450 nm at 0.00128 nM [2]: 0.26 OD450 nm
- OD450 nm at 0.0064 nM [2]: 0.71 OD450 nm
- OD450 nm at 0.032 nM [2]: 2.02 OD450 nm
- OD450 nm at 0.16 nM [2]: 2.86 OD450 nm
- OD450 nm at 0.8 nM [2]: 2.96 OD450 nm
- OD450 nm at 4 nM [2]: 2.99 OD450 nm
- OD450 nm at 20 nM [2]: 3.01 OD450 nm
- OD450 nm at 100 nM [2]: 3.04 OD450 nm

B5: hAb007-29 (antibody, V domains shown)
VH: QVQLVQSGAEVKKPGASVKVSCKASGSTFTDNYIHWVKQAPGQRLEWIGWIYPGSVNIKYNEKFKDRATITADTSATTAYMELSSLRSEDTAVYYCARDISRYYFDYWGQGTTVTVSS
VL: DIVMTQSPDSLAVSLGERATINCKSSQSLLNSRTRKNYLAWYQQKPGQPPKLLIYWASTRESGVPDRFSGSGSGTDFTLTISSLQAEDVAVYYCKQSFILRTFGGGTKLEIK
notes: Humanized; constant regions not specified
- Kd [3]: 9.85 nM
- koff [3]: 0.00415 s⁻¹
- kon [3]: 421000 M⁻¹ s⁻¹

B6: hAb007-30 (antibody, V domains shown)
VH: QVQLVQSGAEVKKPGASVKVSCKASGSTFTDNYIHWVKQAPGQRLEWIGWIYPGSVNIKYNEKFKDRATITADTSATTAYMELSSLRSEDTAVYYCARDISRYYFDYWGQGTTVTVSS
VL: DIVMTQSPDSLAVSLGERATINCKSSQSLLNSRTRKNYLAWYQQKPGQPPKLLIYWASTRESGVPDRFTGSGSGTDFTLTISSLQAEDVAVYYCKQSFILRTFGGGTKLEIK
notes: as for B5
- Kd [3]: 7.11 nM
- koff [3]: 0.00316 s⁻¹
- kon [3]: 445000 M⁻¹ s⁻¹

B7: hAb007-32 (antibody, V domains shown)
VH: QVQLVQSGAEVKKPGASVKVSCKASGSTFTDNYIHWVKQAPGQRLEWIGWIYPGSVNIKYNEKFKDRATITADTSATTAYMELSSLRSEDTAVYYCARDISRYYFDYWGQGTTVTVSS
VL: DIVMTQSPDSLAVSLGERATMNCKSSQSLLNSRTRKNYLAWYQQKPGQPPKLLIYWASTRESGVPDRFTGSGSGTDFTLTISSLQAEDVAVYYCKQSFILRTFGGGTKLEIK
notes: as for B5
- Kd [3]: 7.62 nM
- koff [3]: 0.0032 s⁻¹
- kon [3]: 419000 M⁻¹ s⁻¹

B8: hAb007-31 (antibody, V domains shown)
VH: QVQLVQSGAEVKKPGASVKVSCKASGSTFTDNYIHWVKQAPGQRLEWIGWIYPGSVNIKYNEKFKDRATITADTSATTAYMELSSLRSEDTAVYYCARDISRYYFDYWGQGTTVTVSS
VL: DIVMTQSPDSLAVSLGERATMNCKSSQSLLNSRTRKNYLAWYQQKPGQPPKLLIYWASTRESGVPDRFSGSGSGTDFTLTISSLQAEDVAVYYCKQSFILRTFGGGTKLEIK
notes: as for B5
- Kd [3]: 5.26 nM
- koff [3]: 0.00225 s⁻¹
- kon [3]: 427000 M⁻¹ s⁻¹
